Bounds are passed on as bounds.

Results on six molecules are retold here after patent US20050002923A1 (published 2005).

The test system of data set [1] is Bca UvrA + Eco UvrB + Eco UvrC (Bacillus caldotenax / Escherichia coli). Put plainly: cleavage_in_vitro. To be noted: central (+)-trans-BPDE-N2-guanine adduct; 10 nM UvrA, 100 nM UvrB, 5 nM UvrC, 37 C 20 min; 83% and 60% after UvrA preincubation at 65 C for 10 and 30 min; figure legend says cis adduct, text says trans.
Data set [2] deals with Eco UvrA + Eco UvrB + Eco UvrC (Escherichia coli). Put plainly: cleavage_in_vitro. The conditions noted are these: central (+)-trans-BPDE-N2-guanine adduct; 37 C 20 min; abolished by UvrA preincubation at 65 C for 10 min; figure legend says cis adduct, text says trans.
The test system of data set [3] is UvrA (Bca) (Bacillus caldotenax). Kind of data set: EMSA. To be noted: central (+)-trans-BPDE-N2-guanine adduct; ABC buffer, 10 mM MgCl2, 1 mM ATP, 37 C, 20 min; fitted as UvrA dimer.
The target of data set [4] is Bca UvrA + Eco UvrB (Bacillus caldotenax / Escherichia coli) (UniProt P0A8F8). Kind of data set: EMSA. The conditions noted are these: central (+)-trans-BPDE-N2-guanine adduct; 10 nM UvrA, 100 nM Eco UvrB, 1 mM ATP, 10 mM MgCl2, 37 C; all substrate bound at 250 nM Eco UvrB. For orientation: A gel shift assay detects complexes by their altered migration in electrophoresis.

The test system of data set [5] is UvrA (Eco) (Escherichia coli). Kind of data set: EMSA. The conditions noted are these: central (+)-trans-BPDE-N2-guanine adduct; CITED Zou et al. 1998; cited from earlier work.
The subject of data set [6] is UvrA (Bca) (Bacillus caldotenax). To be noted: ATPase stimulated about 10-fold by 5.6 nM dsDNA (control 4.42; 18.4 at 0.224 nM), 37 C.
Data set [7] deals with UvrA (Eco) (Escherichia coli). The conditions noted are these: ATPase inhibited 23% by 0.224 nM dsDNA (control 71.5), 37 C.
The test system of data set [8] is UvrA (Bca) (Bacillus caldotenax). The conditions noted are these: UV damage, 200 J/m2; ATPase; 13.2 without DNA; 37 C.
The target of data set [9] is UvrA2 Δβh UvrB (Bca) UvrB deletion Gln97-Asp112 replaced by Gly (Bacillus caldotenax) (UniProt P56981). The conditions noted are these: UV damage, 200 J/m2; ATPase; 19.0 without DNA.
In data set [10] the test system is UvrA2UvrB (Bca) (Bacillus caldotenax). The conditions noted are these: UV damage, 200 J/m2; ATPase; 18.3 without DNA.
Data set [11] concerns the target T1, Bacillus caldotenax (Bca) UvrA protein.
T1 chain: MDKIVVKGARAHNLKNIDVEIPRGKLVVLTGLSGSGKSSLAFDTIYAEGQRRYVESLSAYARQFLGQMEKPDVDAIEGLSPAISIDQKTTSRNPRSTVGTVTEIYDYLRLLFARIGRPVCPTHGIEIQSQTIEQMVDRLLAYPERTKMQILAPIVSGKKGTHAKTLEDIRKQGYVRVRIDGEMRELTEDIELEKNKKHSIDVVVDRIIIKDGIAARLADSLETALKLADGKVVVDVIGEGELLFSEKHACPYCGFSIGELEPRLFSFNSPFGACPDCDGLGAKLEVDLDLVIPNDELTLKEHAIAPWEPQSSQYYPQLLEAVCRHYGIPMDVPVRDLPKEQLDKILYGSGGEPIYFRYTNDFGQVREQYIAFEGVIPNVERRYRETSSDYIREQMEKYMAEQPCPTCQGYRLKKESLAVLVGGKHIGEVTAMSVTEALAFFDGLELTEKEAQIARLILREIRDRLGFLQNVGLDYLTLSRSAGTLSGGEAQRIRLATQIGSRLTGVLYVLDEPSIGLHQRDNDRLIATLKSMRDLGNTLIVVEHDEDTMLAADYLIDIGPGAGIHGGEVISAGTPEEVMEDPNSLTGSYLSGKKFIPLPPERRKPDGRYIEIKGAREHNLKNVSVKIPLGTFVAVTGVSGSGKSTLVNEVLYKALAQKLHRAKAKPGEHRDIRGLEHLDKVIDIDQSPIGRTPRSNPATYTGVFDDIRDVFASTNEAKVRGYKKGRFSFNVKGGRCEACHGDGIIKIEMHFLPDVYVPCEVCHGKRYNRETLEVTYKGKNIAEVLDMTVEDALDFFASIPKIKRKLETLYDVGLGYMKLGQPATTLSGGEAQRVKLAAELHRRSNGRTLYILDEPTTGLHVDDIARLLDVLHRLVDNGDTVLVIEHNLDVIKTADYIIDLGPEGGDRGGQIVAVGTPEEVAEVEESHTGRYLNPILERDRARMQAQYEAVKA

In the next data set the target is T2, E. coli UvrB protein (Escherichia coli, UniProt A7ZJI8 1-673).
T2 construct: also called Eco UvrB; UvrB (Eco)
T2 sequence: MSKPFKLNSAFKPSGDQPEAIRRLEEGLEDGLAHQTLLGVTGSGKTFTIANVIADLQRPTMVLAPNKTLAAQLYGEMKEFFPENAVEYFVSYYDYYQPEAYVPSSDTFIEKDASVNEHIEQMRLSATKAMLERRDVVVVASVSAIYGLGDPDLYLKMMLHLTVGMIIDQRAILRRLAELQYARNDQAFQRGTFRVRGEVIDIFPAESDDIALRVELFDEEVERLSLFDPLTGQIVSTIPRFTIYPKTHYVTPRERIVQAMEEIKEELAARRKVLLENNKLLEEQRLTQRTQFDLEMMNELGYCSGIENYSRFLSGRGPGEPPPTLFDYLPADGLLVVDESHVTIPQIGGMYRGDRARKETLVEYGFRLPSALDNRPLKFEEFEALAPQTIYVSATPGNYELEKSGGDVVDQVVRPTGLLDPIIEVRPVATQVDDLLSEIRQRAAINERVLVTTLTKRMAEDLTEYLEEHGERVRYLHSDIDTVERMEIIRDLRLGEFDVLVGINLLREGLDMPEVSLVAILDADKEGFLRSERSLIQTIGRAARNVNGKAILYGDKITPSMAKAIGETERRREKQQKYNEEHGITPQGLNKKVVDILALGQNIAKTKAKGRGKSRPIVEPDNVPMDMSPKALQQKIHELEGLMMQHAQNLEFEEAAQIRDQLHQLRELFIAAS
Put plainly: gel mobility shift with BPDE-DNA substrate, 37° C.

The term Kd denotes the free concentration of one partner at which half of the binding sites on the other are occupied at equilibrium, for simple one-to-one binding. As to (+)-trans-BPDE-N2-dG 50-bp duplex, the results for the activity in data set [1] and in [2] were 89 % incised and 67 % incised, respectively. In addition, the dissociation constant (Kd) is 0.025 µM in data set [3] and 0.0075 µM in data set [5]. Moreover, the binding (% bound as UvrB-DNA) in data set [4] was > 50.

pGL-2 plasmid DNA (undamaged): the activity (uM ADP/min/uM UvrA) in data set [6] worked out at 45.6; in [7], 55.4.

Take UV-irradiated pUC18 DNA: the values for the activity (mol ATP/mol protein/min) in [8], in [9] and in [10] were 17, 29 and 22, respectively.

B1: Bacillus caldotenax (Bca) UvrB protein, wild type (protein)
chain: VEGRFQLVAPYEPQGDQPQAIAKLVDGLRRGVKHQTLLGATGTGKTFTISNVIAQVNKPTLVIAHNKTLAGQLYSELKEFFPHNAVEYFVSYYDYYQPEAYVPQTDTYIEKDAKINDEIDKLRHSATSALFERRDVIIVASVSCIYGLGSPEEYRELVVSLRVGMEIERNALLRRLVDIQYDRNDIDFRRGTFRVRGDVVEIFPASRDEHCIRVEFFGDEIERIREVDALTGEVLGEREHVAIFPASHFVTREEKMRLAIQNIEQELEERLAELRAQGKLLEAQRLEQRTRYDLEMMREMGFCSGIENYSRHLALRPPGSTPYTLLDYFPDDFLIIVDESHVTLPQLRGMYNGDRARKQVLVDHGFRLPSALDNRPLTFEEFEQKINQIIYVSATPGPYELEHSPGVVEQIIRPTGLLDPTIDVRPTKGQIDDLIGEIRERVERNERTLVTTLTKKMAEDLTDYLKEAGIKVAYLHSEIKTLERIEIIRDLRLGKYDVLVGINLLREGLDIPEVSLVAILDADKEGFLRSERSLIQTIGRAARNANGHVIMYADTITKSMEIAIQETKRRRAIQEEYNRKHGIVPRTVKKEIRDVIRATYAAEETEMYEAKPAAAMTKQEREELIRTLEAEMKEAAKALDFERAAQLRDIIFELKAEG
Consider B1, for which, in [11], the ATPase activity (mol of ATP hydrolyzed/mol of protein/min) was 18.3 and the ATPase activity (with UV-irradiated DNA) (mol of ATP hydrolyzed/mol of protein/min) worked out at 22.

B2: Bacillus caldotenax (Bca) UvrA protein (enzyme)
chain: T1 chain
notes: Full-length recombinant protein made in E. coli as a UvrA-intein-CBD fusion and released by DTT cleavage; also called B. caldotenax UvrA; UvrASD
As for B2, the binding result with E. coli UvrB protein was “binds”.

B3: β-hairpin deletion mutant of B. caldotenax UvrB (Δβh UvrB) (protein)
chain: VEGRFQLVAPYEPQGDQPQAIAKLVDGLRRGVKHQTLLGATGTGKTFTISNVIAQVNKPTLVIAHNKTLAGQLYSELKEFFPHNAVEYFVSYYDYYGAKINDEIDKLRHSATSALFERRDVIIVASVSCIYGLGSPEEYRELVVSLRVGMEIERNALLRRLVDIQYDRNDIDFRRGTFRVRGDVVEIFPASRDEHCIRVEFFGDEIERIREVDALTGEVLGEREHVAIFPASHFVTREEKMRLAIQNIEQELEERLAELRAQGKLLEAQRLEQRTRYDLEMMREMGFCSGIENYSRHLALRPPGSTPYTLLDYFPDDFLIIVDESHVTLPQLRGMYNGDRARKQVLVDHGFRLPSALDNRPLTFEEFEQKINQIIYVSATPGPYELEHSPGVVEQIIRPTGLLDPTIDVRPTKGQIDDLIGEIRERVERNERTLVTTLTKKMAEDLTDYLKEAGIKVAYLHSEIKTLERIEIIRDLRLGKYDVLVGINLLREGLDIPEVSLVAILDADKEGFLRSERSLIQTIGRAARNANGHVIMYADTITKSMEIAIQETKRRRAIQEEYNRKHGIVPRTVKKEIRDVIRATYAAEETEMYEAKPAAAMTKQEREELIRTLEAEMKEAAKALDFERAAQLRDIIFELKAEG
In [11], B3 gave an ATPase activity (mol of ATP hydrolyzed/mol of protein/min) of 19 and an ATPase activity (with UV-irradiated DNA) (mol of ATP hydrolyzed/mol of protein/min) of 29.
